The record followed here is US20230212587A1, “Mutant Hydroxyphenylpyruvate Dioxygenase Polypeptide, Encoding Gene Thereof and Use Therefor” (Beijing Dabeinong Biotechnology Co., Ltd., priority 2019, published 2023).

The subject of this assay is Arabidopsis thaliana T1 plants. The assay can be described thus: Topramezone tolerance of transgenic Arabidopsis thaliana T1 plants (pesticide damage grade by bleached leaf area, score, resistance evaluation). It is filed as in vivo. To be noted: HPPD F372V mutants, Table 7. The gist of the method: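 Herbicide tolerance was judged per plant on a bleaching scale (grade 0 no bleaching to grade 3 fully bleached) 7 DAT. Topramezone doses were 0, 25, 50 and 100 g ai/ha on 18-day-old T1 and wild-type plants.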

B1: ZmHPPDm-F372V: Zea mays HPPD mutant F372V, SEQ ID NO: 347 (protein)
chain: MPPTPTAAAAGAAVAAASAAEQAAFRLVGHRNFVRFNPRSDRFHTLAFHHVELWCADAASAAGRFSFGLGAPLAARSDLSTGNSAHASLLLRSGSLSFLFTAPYAHGADAATAALPSFSAAAARRFAADHGLAVRAVALRVADAEEAFRTSVAAGARPAFGPVDLGRGFRLAEVELYGDVVLRYVSYPDGAAGEPFLPGFEGVASPGAADYGLSRFDHIVGNVPELAPAAAYFAGFTGFHEFAEFTTEDVGTAESGLNSMVLANNSENVLLPLNEPVHGTKRRSQIQTFLDHHGGPGVQHMALASDDVLRTLREMQARSAMGGFEFMAPPTSDYYDGVRRRAGDVLTEAQIKECQELGVLVDRDDQGVLLQIVPKPVGDRPTLFLEIIQRIGCMERDEKGQEYQKGGCGGFGKGNFSQLFKSIEDYEKSLEAMQAAAAATAQGS
modifications: ZmHPPDm-F372V Amino Acid Sequence
As to B1, the Resistance evaluation result runs as follows: (topramezone 25 g ai/ha (1x)) “Highly resistant”; (topramezone 100 g ai/ha (4x)) “Poorly resistant”.

B2: CyHPPDm-F372V: Cyanobacteria HPPD mutant F372V, SEQ ID NO: 387 (protein)
chain: MEFDYLHLYVDDYQSAHRCYQRQWGFTCVNKIITDQGITGIYQQGQILLLISASESSLSRYADYLQKHPPGVGEVAWQVANWQKIQHQLSELQIETTPVIHPLTKAEGLTFLLWGDVHHSIYPVRSELNQNKTLHGVGLTTIDHVVLNIAADQFTQASQWYQQVFGWSVQQSFTVNTPHSGLYSEALASANGKVQFNLNCPTNNSSQIQTFLANNHGAGIQHVAFSTTSITRTVAHLRERGVNFLKIPTGYYQQQRNSSYFNYASLDWDTLQCLEILLDDQDNTGERLLLQIVSQPCYGVGTLFWEIIERRHRAKGFGQGNFQALYEAVETLEKQLEVP
modifications: CyHPPDm-F372V Amino Acid Sequence
Regarding B2, the Resistance evaluation entry was “Poorly resistant” (topramezone 25 g ai/ha (1x)) and “Non-resistant” (topramezone 100 g ai/ha (4x)).

B3: N1HPPDm-F372V: Sphingobium sp. N1 HPPD mutant F372V, SEQ ID NO: 389 (protein)
chain: MAADSENPLGLHGFAFAEFTSPDPAAMARQFEQLGFVPAARRKDRGLTLYRQGRIAFILNAGEGEQASAFRAAHGPSANGMAFNVADAKAAHRHAIQSGATDADTAQSALPGTYAIEGIGDSLLYLVDSDPFADWDEVPGWREASAERGVGLDLLDHLTHNVRRGQMRVWSEFYATLFGFEEQKFFDIKGQATGLFSQAMIAPDHEIRIPLNESQDDNSQIEEFIREYNGEGIQHLALTTPDIYSTVEKLRANGVRLQDTIDTYYDLVDERVPGHGEDLARLRKNRILIDGDVHDEGLLLQIVTETMFGPIFFEIIQRKGNEGFGNGNFQVLYESIELDQIRRGVVTVDA
modifications: N1HPPDm-F372V Amino Acid Sequence
In the case of B3, the Resistance evaluation result is “Highly resistant” (topramezone 25 g ai/ha (1x)) and “Highly resistant” (topramezone 100 g ai/ha (4x)).

B4: SlHPPDm-F372V (protein)
chain: MGKQAAAAADDQQLPGDIEDKFKLVGFNHFVRTNPRSDFFTVKRFHHIEFWCGDATNTARRFSWGLGLPIAAISDLSTGNSVHASYLLRSSSSSQLQFLFTAPYSSAISTSSSASIPTFSVSSHRSFTATHGLGVRAIALEVENSRLAFSTCVAHGAKPVSEPVILNDEVVIAEVHLYGDVVLRFVSFLKDSNCFVFLPGFESVEGAQLDYGIRRLDHAVGNVPELGPVVEYIKSFTGFHEFAEFTAEDVGTAESGLNSVVLANNDETVLFPLNEPVYGTKRKSQIQTYLEHNEGAGVQHLALVTEDIFRTLREMRKRSGIGGFEFMPSPPPTYYKNLKTRAGDILSDEQIQECEELGILVDRDDQGTLLQIVTKPVGDRPTIFLEIIQRIGCMLKNEEGELYQKGGCGGFGKGNFSELFKSIEEYEKTLEAKQNTQVAIA
modifications: SlHPPDm-F372V Amino Acid Sequence
As for B4, the Resistance evaluation result runs as follows: (topramezone 25 g ai/ha (1x)) “Poorly resistant”; (topramezone 100 g ai/ha (4x)) “Non-resistant”.

B5: CsHPPDm-F372V: Cucumis sativus HPPD mutant F372V, SEQ ID NO: 379 (protein)
chain: MGKEADFPRAPSEATDGGATASQSEFELQGFDNFIRTNPKSDRFKVKRFHHIEFWCTDATNVARRFSWGLGMQIVAKSDLSTGNMTHASYLLRSGHLCFLFTAPYSPSIAAAQNLTPASTASIPSFDHSVCRSFSGTHGFGARAIALEVEDAEIAFRTSVAHGAKPSCPPIVLENRAVLSEVHLYGDVVLRYISYKNPVSGDNGENKPDEWFLPKFEAMEETASFPLDFGIRRLDHAVGNVPELGPAVSYLKGFTGFHEFAEFTAEDVGTSESGLNSMVLANNEEMVLLPINEPVFGTKRKSQIQTYLEHNEGAGVQHLALMSEDIFRTLREMRKRSSVGGFEFMPSPPPTYYKNLKSRAGDVLTDEQIKECEELGILVDKDDQGTLLQIVTKPVGDRPTIFIEIIQRLGCMMKDEEGKAFQKGGCGGFGKGNFSELFKSIEEYEKTLEAKRVSE
modifications: CsHPPDm-F372V Amino Acid Sequence
On to B5, for which the Resistance evaluation entry by setting is: (topramezone 25 g ai/ha (1x)) “Poorly resistant”; (topramezone 100 g ai/ha (4x)) “Non-resistant”.

B6: N2HPPDm-F372V: Sphingobium sp. N2 HPPD mutant F372V, SEQ ID NO: 391 (protein)
chain: MTLFDNPLGLDGFEFVEFSAPAKGMLEPVFAAMGFVMIARHRSKDVQLWRQGGINLIANYEPRSPAAYFAAEHGPSACGMGWRVRNAAKAYELAVERGAEPVDVKTGPMELRLPAIRGIGGSIIYLIDRYEDEDGGLSIYDIDFVYEPGVDRHPEGAGFKIIDHLTHNVYGGRMAHWASFYERVFGFREIRYFDIKGEYTGLTSKAMTAPDGKIRIPLNEEGKAGGGQIEEFLRAYNGEGIQHIAFLCDDLIAAWDKLKALGTPLMTAPPATYYEMLDERLPGHGEPVAELQKRGILLDGSTQQGDPRLLLQIVGQATIGPVFFEFIQRKKDEGFGEGNFTALFESMERDQLRRGTLNAGESA
modifications: N2HPPDm-F372V Amino Acid Sequence
For B6, the Resistance evaluation entry runs as follows: (topramezone 25 g ai/ha (1x)) “Highly resistant”; (topramezone 100 g ai/ha (4x)) “Highly resistant”.

B7: StHPPDm-F372V: Solanum tuberosum HPPD mutant F372V, SEQ ID NO: 381 (protein)
chain: MGKQAATATATATATADDQQLPADIEDKYKLVGFNNFVRTNPRSDLFNVKRFHHIEFWCGDATNTARRFSWGLGLPIAAKSDLSTGNSVHASYLLRSSSSQLQFLFTAPYSPAISTPSSSSIPTFSVSSHRSFTETHGLGVRAIALEVENSRLAFSTCVSHGAKPVSEPVILNDEVVISEVHLYGDVVLRFVSFLKDSNRFVFLPGFELVEGAQLDYGIRRLDHAVGNVPQLGPVVEYIKSFTGFHEFAEFTAEDVGTAESGLNSVVLANNDETVLFPLNEPVYGTKRKSQIQTYLEHNEGAGVQHLALVTEDIFRTLREMRKRSGIGGFEFMPSPPPTYYKNLKSRAGDILSDEQIKECEELGILVDRDDQGTLLQIVTKPVGDRPTIFLEIIQRIGCMLQNAEGELYQKGGCGGFGKGNFSELFKSIEEYEKTLEAKQNTQVAIA
modifications: StHPPDm-F372V Amino Acid Sequence
As for B7, the Resistance evaluation entry was “Poorly resistant” (topramezone 25 g ai/ha (1x)) and “Non-resistant” (topramezone 100 g ai/ha (4x)).

B8: BvHPPDm-F372V: Beta vulgaris HPPD mutant F372V, SEQ ID NO: 375 (protein)
chain: MGTLSPQPQTSPSQFKLVGYSNFIRVNPLSDLFPVKRFHHVEFWCGDATNVSRRFSWGLGMPIVAKSDLSTGNSVHASYLLRSGELHFLFTSPYSPSLSSPSSATIPTFSFSLFTSFLTSHGLAVRAVAVEVQDAEAAFHISVSNGASPVSPPIRLHDGVVLSEVHLYGDVVLRYVSTSSVVDGIFLPGFEEMLGESSFQELDFGLRRLDHAVGNVPELAPAIEYVKKFTGFHEFAEFTTEDVGTSESGLNSAVVANNDETVLFPMNEPVYGTKRKSQIQTYLEHNEGAGVQHLALMSEDIFWTLREMRKRSGLGGFEFMPSPPPTYYRNLRNRAADVLSEEQMKECEELGILVDKDDQGTLLQIVTKPIGDRPTMFIEIIQRIGCMMKDEEGKVYQKGGCGGFGKGNFSELFKSIEEYEKTLERKPIADTNAT
modifications: BvHPPDm-F372V Amino Acid Sequence
Consider B8, for which the Resistance evaluation result reads like this: (topramezone 25 g ai/ha (1x)) “Poorly resistant”; (topramezone 100 g ai/ha (4x)) “Non-resistant”.

B9: NtHPPDm-F372V: Nicotiana tabacum HPPD mutant F372V, SEQ ID NO: 377 (protein)
chain: MGKLETVTTTSAAAADDSSELTTNFKLVGFKNFIRTNPRSDFFSVKSFHHIEFWCGDATNTARRFSWSLGMPIAAKSDLSTGNSVHASYLLRPVSGSLQFLFTAPYSPSISTPSSAAIPSFSTSTHRSFTTTHGLGVRAVALEVENAYTAFSASVSRGAKPMFEPVTIDEQVAMAEVHLYGDVVLRFVSYLKDADNLVFLPGFEAMDETASYKELDYGIRRLDHAVGNVPELGPVVDYIKRFTGFHEFAEFTAEDVGTAESGLNSMVLANNDETVLLPLNEPVYGTKRKSQIQTYLEHNEGAGVQHLALVTEDIFKTLTEMRKRSGVGGFEFMPSPPPTYYKNLKNRAGDVLSDEQILACEELGILVDRDDQGTLLQIVTKPVGDRPTIFIEIIQRIGCMLKDGKGQVYQKGGCGGFGKGNFSELFRSIEEYEKTLEAKQANQVAAA
modifications: NtHPPDm-F372V Amino Acid Sequence
Consider B9, for which the Resistance evaluation entry reads like this: (topramezone 25 g ai/ha (1x)) “Poorly resistant”; (topramezone 100 g ai/ha (4x)) “Non-resistant”.

B10: AhHPPDm-F372V: Arachis hypogaea HPPD mutant F372V, SEQ ID NO: 385 (protein)
chain: MATAYTYAHAVTYCNSQHNPPIIPILSTNQHPPRVTLPSSIPHFISTITTFNLKHFPSHSLHTVMVTQTQQNAPSSSPELGFKLVGFKNFVRTNPKSDRFKVIRFHHVEFWCTDATNTASRFSWGLGMPIVAKSDLSTGNAVHASYLLRSGDLNFLFSAPYSASIAGDGASASFPSFSASDCHSFAAKHGLAVRAVAIEVEDASAAFSASVANGAKPVSPAVLLDNSVGFAEVHLYGDVVLRYISYSAPTRESNLNPTLRFLPGFEAVEADSSFPELDYGIRRLDHAVGNVPELAPAVNYLKKFTGFHEFAEFTAEDVGTSESGLNSVVLASNDEMVLLPLNEPVYGTKRKSQIETYLEHNEGAGLQHLALVSEDIFRTLREMRKRSTIGGFQFMPSPPPTYYRNLKKRAGDVLSDEQIKECEELGILVDRDDQGTLLQIVTKPVGDRPTIFIEIIQRIGCMLKDEEGKVYQKGGCGGFGKGNFSELFKSIEEYEKTLESRRTA
modifications: AhHPPDm-F372V Amino Acid Sequence
For the molecule B10, the Resistance evaluation entry (topramezone 25 g ai/ha (1x)) was “Poorly resistant” and the Resistance evaluation result (topramezone 100 g ai/ha (4x)) is “Non-resistant”.
